Measurements published in paper PMC13181761, “New Analogs of the Compstatin Family of Clinical Complement Inhibitors with Low Picomolar Target Affinity” (Journal of Medicinal Chemistry, 2026).

Columns and labels:
human C3b (human) [1] = biological target: human C3b (human) (UniProt P01024); experiment: SPR; Biacore T200; human C3b amine-coupled; multicycle kinetics, serial 2-fold dilutions of peptide, 120 s injection, 180 s dissociation, regeneration 1 M NaCl; 25 °C, HBST pH 7.4; Langmuir 1:1 fit, KD = kd/ka; mean of 3 experiments
human C3b (human) [2] = biological target: human C3b (human) (UniProt P01024); experiment: SPR; Biacore T200; human C3b amine-coupled; 25 °C, HBST pH 7.4; KD determined as steady state affinity
human C3b (human) [3] = biological target: human C3b (human) (UniProt P01024)
human C3b (human) [4] = biological target: human C3b (human) (UniProt P01024); experiment: SPR; Biacore T200; human C3b amine-coupled; single-cycle kinetics, 5 increasing concentrations (0.5-40 nM), final dissociation 100-240 min; 25 °C, HBST pH 7.4; global Langmuir 1:1 fit; mean of 3 experiments
human C3b (human) [5] = biological target: human C3b (human) (UniProt P01024); remark: listed apart in the source

Kd (human C3b (human) [1]) [nM]	koff (human C3b (human) [1]) [s⁻¹]	kon (human C3b (human) [1]) [M⁻¹ s⁻¹]	Substance	further results
502	0.15	300000	Cp01 Arg11Lys analog (peptide)	
529	0.16	330000	Cp01 Arg11Ser analog (peptide)	
219	0.11	540000	Cp01 Asp6Asn analog (peptide)	
528	0.18	380000	Cp01 Asp6Glu analog (peptide)	
609	0.18	310000	Cp01 Asp6Ser analog (peptide)	
552	0.11	200000	Cp01 Val3Leu analog (peptide)	
			Cp01 aIle3 analog (peptide)	Kd (human C3b (human) [2]): 545 nM
19.8	0.017	880000	Cp01-V3I (peptide)	IC50 of inhibition of alternative pathway complement activation (AP ELISA, diluted normal human serum; the target in serum is C3) (human C3b (human) [3]): 200 nM; IC50 of inhibition of classical pathway complement activation (CP ELISA, diluted normal human serum; the target in serum is C3) (human C3b (human) [3]): 430 nM
1.5	0.002	1.14e+06	Cp05 Ile3 analog (peptide)	
			Cp40 aIle3 analog (peptide)	Kd (human C3b (human) [4]): 15.6 nM; koff (human C3b (human) [4]): 0.007 s⁻¹; kon (human C3b (human) [4]): 460000 M⁻¹ s⁻¹
			compstatin analog Cp01 (peptide)	IC50 of inhibition of alternative pathway complement activation (AP ELISA, diluted normal human serum; the target in serum is C3) (human C3b (human) [3]): 1400 nM; IC50 of inhibition of classical pathway complement activation (CP ELISA, diluted normal human serum; the target in serum is C3) (human C3b (human) [3]): 20000 nM
46.8	0.014	300000	compstatin analog Cp05 (peptide)	
			compstatin analog Cp40 (peptide)	IC50 of inhibition of classical pathway complement activation (CP ELISA, 5% human serum) (human C3b (human) [5]): 158 nM; Kd (human C3b (human) [4]): 0.7 nM; koff (human C3b (human) [4]): 0.001 s⁻¹; kon (human C3b (human) [4]): 1.76e+06 M⁻¹ s⁻¹
			compstatin analog Cp60 (peptide)	IC50 of inhibition of classical pathway complement activation (CP ELISA, 5% human serum) (human C3b (human) [5]): 97 nM; Kd (human C3b (human) [4]): 0.08 nM; koff (human C3b (human) [4]): 0.0001 s⁻¹; kon (human C3b (human) [4]): 1.76e+06 M⁻¹ s⁻¹; target residence (human C3b (human) [4]): > 100 min
